Test results taken from patent publication US9481899B2, “Methods and compositions for producing hydrocarbons” (priority 2008, dated 2016).
Read-outs that look alike come from different tables or passages of the source.

Columns and labels:
[1] = target: T1, PCC7942_orf1594 protein (Synechococcus elongatus, UniProt Q54765); assay: Acyl-ACP or acyl-CoA reductase enzyme assay; format: biochemical, Synechococcus elongatus PCC7942; conditions: for reduction to fatty aldehyde: 10 μM enzyme, MgCl2, NADPH, 1 h at 37° C.
T1 construct: made in house; host or cells: E. coli BL21 (DE3)
T1 sequence (Q54765 1-341): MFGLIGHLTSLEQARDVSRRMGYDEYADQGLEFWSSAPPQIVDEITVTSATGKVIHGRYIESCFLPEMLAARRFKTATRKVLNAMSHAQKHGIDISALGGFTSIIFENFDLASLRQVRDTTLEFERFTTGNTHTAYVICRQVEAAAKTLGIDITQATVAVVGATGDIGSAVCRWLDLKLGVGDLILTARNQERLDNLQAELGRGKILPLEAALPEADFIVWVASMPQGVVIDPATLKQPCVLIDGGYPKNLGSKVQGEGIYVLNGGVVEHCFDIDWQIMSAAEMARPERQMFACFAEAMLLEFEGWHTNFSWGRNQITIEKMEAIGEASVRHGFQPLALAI
Protocol: The genomic DNA encoding S. elongatus […] orf1594 (SEQ ID NO:65) was cloned into the NcoI and XhoI sites of vector pET-28b under the control of the T7 promoter. The resulting PCC7942_orf1594 protein contained a C-terminal His-tag. An E. coli BL21 strain (DE3) (Invitrogen) was transformed with the plasmid and PCC7942_orf1594 protein was expressed and purified as described in Example 22. The protein solution was stored in the following buffer: 50 mM sodium phosphate, pH 7.5, 100 mM NaCl, 1 mM THP, 10% glycerol. Protein concentration was determined using the Bradford assay (Biorad). 2 mg/mL of PCC7942_orf1594 protein was obtained.
To test PCC7942_orf1594 protein for acyl-ACP or acyl-CoA reductase activity, the following enzyme assays were set-up. 100 μL reactions were set-up in 50 mM Tris-HCl buffer at pH 7.5 with the following components at their respective final concentrations: 10 μM of purified PCC7942_orf1594 protein, 0.01-1 mM acyl-CoA or acyl-ACP, 2 mM MgCl2, 0.2-2 mM NADPH. The reactions were incubated for 1 h at 37° C. and where stopped by adding 100 μL ethyl acetate (containing 5 mg/l 1-octadecene as internal standard). Samples were vortexed for 15 min and centrifuged at max speed for 3 min for phase separation. 80 μL of the top layer were transferred into GC glass vials and analyzed by GC/MS as described in Example 26. The amount of aldehyde formed was calculated based on the internal standard.
Next, the stereospecific hydride transfer from NADPH to a fatty aldehyde catalyzed by PCC7942_orf1594 was examined. Deutero-NADPH was prepared according to the following protocol. 5 mg of NADP and 3.6 mg of D-glucose-1-d was added to 2.5 mL of 50 mM sodium phosphate buffer (pH 7.0). Enzymatic production of labeled NADPH was initiated by the addition of 5 units of glucose dehydrogenase from either Bacillus megaterium (USB Corporation) for the production of R-(4-^2H)NADPH or Thermoplasma acidophilum (Sigma) for the production of S-(4-^2H)NADPH. The reaction was incubated for 15 min at 37° C., centrifuge-filtered using a 10 KDa MWCO Amicon Ultra centrifuge filter (Millipore), flash frozen on dry ice, and stored at −80° C.
The in vitro assay reaction contained 50 mM Tris-HCl (pH 7.5), 10 μM of purified PCC7942_orf1594 protein, 1 mM octadecanoyl-CoA, 2 mM MgCl2, and 50 μL deutero-NADPH (prepared as described above) in a total volume of 100 μL. After a 1 h incubation, the product of the enzymatic reaction was extracted and analyzed as described above. The resulting fatty aldehyde detected by GC/MS was octadecanal (see FIG. 34). Because hydride transfer from NADPH is stereospecific, both R-(4-^2H)NADPH and S-(4-^2H)NADPH were synthesized.

[2] = tested on: E. coli MG1655 ΔfadD lacZ::Ptrc-′tesA; assay: Decarbonylase expression in fatty aldehyde-producing E. coli strain expressing MSMEG_5739; format: cell-based; conditions: coexpressed with M. smegmatis carboxylic acid reductase MSMEG_5739
[3] = tested on: E. coli MG1655; assay: Coexpression of decarbonylase and aldehyde-generating enzyme in E. coli, GC-MS of hydrocarbons; format: cell-based; conditions: for Production of Alkanes and Alkenes: alkane/alkene biosynthetic polypeptide coexpressed in E. coli with the aldehyde biosynthetic polypeptide of the same table row; for fatty aldehyde decarbonylase activity in E. coli: cotransformed with S. elongatus PCC7942_1594 into E. coli MG1655, M9 minimal media, 37° C.
From the text: Seven cyanobacteria, whose complete genome sequences are publicly available, were selected for verification and/or detection of alkane biosynthesis: Synechococcus elongatus PCC7942, Synechococcus elongatus PCC6301, Anabaena variabilis ATCC29413, Synechocystis sp. PCC6803, Nostoc punctiforme PCC73102, Gloeobacter violaceus ATCC 29082, and Prochlorococcus marinus CCMP1986. Only the first three cyanobacterial strains from this list had previously been reported to contain alkanes (Han et al., J. Am. Chem. Soc. 91:5156-5159 (1969); Fehler et al., Biochem. 9:418-422 (1970)). The strains were grown photoautotrophically in shake flasks in 100 mL of the appropriate media (listed in Table 8) for 3-7 days at 30° C. at a light intensity of approximately 3,500 lux. Cells were extracted for alkane detection as follows: cells from 1 mL culture volume were centrifuged for 1 min at 13,000 rpm, the cell pellets were resuspended in methanol, vortexed for 1 min and then sonicated for 30 min. After centrifugation for 3 min at 13,000 rpm, the supernatants were transferred to fresh vials and analyzed by GC-MS. The samples were analyzed on either 30 m DP-5 capillary column (0.25 mm internal diameter) or a 30 m high temperature DP-5 capillary column (0.25 mm internal diameter) using the following method.
After a 1 μL splitless injection (inlet temperature held at 300° C.) onto the GC/MS column, the oven was held at 100° C. for 3 mins. The temperature was ramped up to 320° C. at a rate of 20° C./min. The oven was held at 320° C. for an additional 5 min. The flow rate of the carrier gas helium was 1.3 mL/min. The MS quadrapole scanned from 50 to 550 m/z. Retention times and fragmentation patterns of product peaks were compared with authentic references to confirm peak identity.
The genomic DNA encoding Synechococcus elongatus PCC7942 orf1594 (YP_400611; putative aldehyde-generating enzyme) (SEQ ID NO:65) was amplified and cloned into the NcoI and EcoRI sites of vector OP-80 (pCL1920 derivative) under the control of the Ptrc promoter. The resulting construct (“OP80-PCC7942_1594”) was transformed into E. coli MG1655 and the cells were grown at 37° C. in M9 minimal media with 1% (w/v) glucose as carbon source and supplemented with 100 μg/mL spectinomycin. When the culture reached OD600 of 0.8-1.0, it was induced with 1 mM IPTG and cells were grown for an additional 18-20 h at 37° C. Cells from 0.5 mL of culture were extracted with 0.5 mL of ethyl acetate. After sonication for 60 min, the sample was centrifuged at 15,000 rpm for 5 min. The solvent layer was analyzed by GC-MS as described in Example 1.
The genomic DNA encoding Synechococcus elongatus PCC7942 orf1593 (YP_400610; putative decarbonylase) (SEQ ID NO:1) was amplified and cloned into the NdeI and XhoI sites of vector OP-183 (pACYC derivative) under the control of the Ptrc promoter. The resulting construct was cotransformed with OP80-PCC7942_1594 into E. coli MG1655 and the cells were grown at 37° C. in M9 minimal media supplemented with 100 μg/mL spectinomycin and 100 μg/mL carbenicillin. The cells were cultured and extracted as in Example 3 and analyzed by GC-MS as described in Example 1. […]

[4] = in the presence of 2 mM NADPH, read-out: Km for the reduction

## NC(=O)C1=CN([C@@H]2O[C@H](COP(=O)(O)OP(=O)(O)OC[C@H]3O[C@@H](n4cnc5c(N)ncnc54)[C@H](O)[C@@H]3O)[C@@H](O)[C@H]2O)C=CC1 [NADH]
[1]; octadecanoyl-CoA, Mg2+
  support of reductase activity as electron donor: did not support reductase activity

## [2H]C1C=CN(C2OC(COP(=O)(O)OP(=O)(O)OCC3OC(n4cnc5c(N)ncnc54)C(OP(=O)(O)O)C3O)C(O)C2O)C=C1C(N)=O (stereo not drawn) [S-(4-^2H)NADPH]
[1]; 1 mM octadecanoyl-CoA, deutero-NADPH, 1 h
  stereospecific hydride transfer to fatty aldehyde: Octadecanal with a plus one unit mass was observed

## CCCCCCCCCCCCCCCCCC(=O)SCCNC(=O)CCNC(=O)[C@H](O)C(C)(C)COP(=O)(O)OP(=O)(O)OC[C@H]1O[C@@H](n2cnc3c(N)ncnc32)[C@H](O)[C@@H]1OP(=O)(O)O [octadecanoyl-CoA]
[1]
  reduction to fatty aldehyde: able to reduce

## NADPH
[1]; in the presence of 0.5 mM octadecanoyl-CoA, read-out: Km value for NADPH
  Km: 400 ± 80 µM

## octadecenoyl-ACP
[1]
  reduction to fatty aldehyde: able to reduce
[1]; [4]
  Km: 7.8 ± 2 µM

## octadecenoyl-CoA
[1]
  reduction to fatty aldehyde: able to reduce
[1]; [4]
  Km: 82 ± 22 µM

B1: SEQ ID NO: 15: Gloeobacter violaceus PCC7421 gll3146, putative decarbonylase (protein, listed as Gloeobacter violaceus)
chain: VNRTAPSSAALDYRSDTYRDAYSRINAIVLEGEREAHANYLTLAEMLPDHAEALKKLAAMENRHFKGFQSCARNLEVTPDDPFARAYFEQLDGNFQQAAAEGDLTTCMVIQALIIECFAIAAYNVYIPVADAFARKVTEGVVKDEYTHLNFGQQWLKERFVTVREGIERANAQNLPIVWRMLNAVEADTEVLQMDKEAIVEDFMIAYGEALGDIGFSMRDVMKMSARGLASAPRQ
[2]
  conversion of fatty aldehydes provided by MSMEG_5739 to alkanes: converted fatty aldehydes provided by MSMEG_5739 to the corresponding alkanes
[3]
  Production of Alkanes and Alkenes: yes
  fatty aldehyde decarbonylase activity in E. coli: active fatty aldehyde decarbonylase

B2: SEQ ID NO: 5: Nostoc punctiforme PCC73102 Npun02004178, putative decarbonylase (protein)
chain: MQQLTDQSKELDFKSETYKDAYSRINAIVIEGEQEAHENYITLAQLLPESHDELIRLSKMESRHKKGFEACGRNLAVTPDLQFAKEFFSGLHQNFQTAAAEGKVVTCLLIQSLIIECFAIAAYNIYIPVADDFARKITEGVVKEEYSHLNFGEVWLKEHFAESKAELELANRQNLPIVWKMLNQVEGDAHTMAMEKDALVEDFMIQYGEALSNIGFSTRDIMRLSAYGLIGA
modifications: Nostoc punctiforme
notes: Nostoc punctiforme PCC73102 Npun02004178, putative decarbonylase
[2]
  conversion of fatty aldehydes provided by MSMEG_5739 to alkanes: converts tetradecanal, hexadecenal and hexadecanal provided by the carboxylic acid reductase MSMEG_5739 to tridecane, pentadecene and pentadecane
[3]
  Production of Alkanes and Alkenes: yes
  fatty aldehyde decarbonylase activity in E. coli: active fatty aldehyde decarbonylase

B3: SEQ ID NO: 7: Nostoc sp. PCC7210 alr5283, putative decarbonylase (protein, listed as Nostoc sp.)
chain: MQQVAADLEIDFKSEKYKDAYSRINAIVIEGEQEAYENYIQLSQLLPDDKEDLIRLSKMESRHKKGFEACGRNLQVSPDMEFAKEFFAGLHGNFQKAAAEGKIVTCLLIQSLIIECFAIAAYNIYIPVADDFARKITEGVVKDEYSHLNFGEVWLQKNFAQSKAELEEANRHNLPIVWKMLNQVADDAAVLAMEKEALVEDFMIQYGEALSNIGFTTRDIMRMSAYGLTAA
[2]
  conversion of fatty aldehydes provided by MSMEG_5739 to alkanes: converted fatty aldehydes provided by MSMEG_5739 to the corresponding alkanes
[3]
  Production of Alkanes and Alkenes: yes
  fatty aldehyde decarbonylase activity in E. coli: active fatty aldehyde decarbonylase

B4: SEQ ID NO: 9: Acaryochloris marina MBIC11017 AM1_4041, putative decarbonylase (protein, listed as Acaryochloris marina)
chain: MPQTQAISEIDFYSDTYKDAYSRIDGIVIEGEQEAHENYIRLGEMLPEHQDDFIRLSKMEARHKKGFEACGRNLKVTCDLDFARRFFSDLHKNFQDAAAEDKVPTCLVIQSLIIECFAIAAYNIYIPVADDFARKITESVVKDEYQHLNYGEEWLKAHFDDVKAEIQEANRKNLPIVWRMLNEVDKDAAVLGMEKEALVEDFMIQYGEALSNIGFSTGEIMRMSAYGLVAA
[2]
  conversion of fatty aldehydes provided by MSMEG_5739 to alkanes: converted fatty aldehydes provided by MSMEG_5739 to the corresponding alkanes
[3]
  Production of Alkanes and Alkenes: yes
  fatty aldehyde decarbonylase activity in E. coli: active fatty aldehyde decarbonylase
